Data from CN117567617A (CHINA RESOURCES BIOMEDICAL CO LTD, dated 2024).

Key:
[1] = target: T1, CLDN18.2 (species not stated); assay: flow cytometry on CLDN18.2-overexpressing cells, MFI against antibody concentration
T1 construct: whole, on cells; the form of the antigen in the ka/kd/KD measurement is not described; also called CLDN18.2过表达细胞; claudin18.2

[2] = target: T1, CLDN18.2 (species not stated at that …); assay: affinity measurement, method not described

EC50 [1]: 0.62 µg/mL | Kd [2]: 5.24 nM | koff [2]: 0.00172 s⁻¹ | kon [2]: 328000 M⁻¹ s⁻¹
B1: 全人源抗CLDN18.2抗体2A2 (CLDN-BC-2A2-hH1) (antibody, V domains shown)
VH: QVQLQQWGPGLVKPSQTLSLTCTVSGGSISSVGYYWSWIRQHPGQGLEWVGYIYYSGGTYYNPSLKSRVTISLDTSKNQFSLKLTSVTAADTAVYYCASYGSVSPYYYYYGMDVWGQGTTVTVSS
VL: DIVMTQSPSSVSASVGDRVTITCRASQGISSWLAWYQQKPGKAPNLLISAASSLQSGVPSRFSGNGSGTDFTLTISSLQPEDFASYYCQQANSFPITFGQGTRLEIK
notes: The label 2A2-hIgG1 points to a human IgG1 full antibody; Made by transient expression in ExpiCHO; also called CLN-2A2-hH1; 2A2-hIgG1
